According to PMC6640674:

Biological target: BPSL1626 (Burkholderia pseudomallei strain K96423) (UniProt Q63UH6)
Assay: crystal structure

Question: Which stoichiometry N does the source give for “BPSL1626 (from UniProt Q63UH6 26-176) (natural protein)” here?
Answer: 2
